Assay results as given in the nanobody polyreactivity screen of Harvey et al. (2022).

Assay: yeast display, Sf9 membrane polyspecificity reagent, FACS + sequencing; frameworks hold sequencing errors
In short: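 After 36–48 hours of galactose induction, yeast (Saccharomyces cerevisiae BJ5465) displaying a synthetic nanobody library were stained at 4 °C for 1 hour with 10% biotinylated, detergent-solubilized Sf9 membrane reagent. Streptavidin microbeads enriched the stained cells before FACS sorting into low and high (top ~1%) gates on anti-HA and streptavidin fluorescence. Each clone's polyreactivity label reflects its gate of origin.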

Which “polyreactivity (PSR sort gate)” value does the source give for “QVQLVESGGGLVQAGGSLRLSCAASGRTIEQYDMGWYRQAPGKDRELVAAISWRGGGTYYADSVKGRFTISRDNAKNTVYLQMNSLKPEDTAVYYCAKKSHTTDEGYDYWGQGTQVTVSS” here?
Its value is “low polyreactivity”.

With “QVQLVESGGGLVQAGGSLRLSCAASGRTIEWYAMGWYRQAPGKEREFVARISGIGGSTYYADSVKGRFTISRDKAENTVYLQMNSLKPEDTAVYYCAAVSYFGYYYWGQGTQVTVSS” as the sequence, how does the “polyreactivity (PSR sort gate)” value read?
The value was “high polyreactivity”.

With “QVQLVESGGGLVQAGGSLRLSCAASGRTIEYNAMGWYRQAPGKEREFVAAITYSGGGTYYADSVKGRFTISRDNAKNTVYLQMNSLKPEDTAVYYCARERTRVHKHYYWGQGTQVTVSS” as the sequence, how does the “polyreactivity (PSR sort gate)” value read?
Its value is “low polyreactivity”.

For “QVQLVESGGGLVQAGGSLRLSCAASGRTIGKNAMGWYRQAPGKERELVAAISWRGGSTRYADSVKGRFTISRDNAKNTVYLQMNSLKPEDTAVYYCAVRFLTYWHGSYWYDYWGQGTQVTVSS”, which “polyreactivity (PSR sort gate)” value is on record?
The value was “high polyreactivity”.

Which “polyreactivity (PSR sort gate)” value does the source give for “QVQLVESGGGLVQAGGSLRLSCAASGRTIGPYAMGWYRQAPGKERELVAAISGGGSTNYADSVKGRFTISRDNAKNTVSLQMKSLKPEDTAVYYCNTEYPISGEEEYWGQGTQVTVSS” here?
Its value is “low polyreactivity”.

Which “polyreactivity (PSR sort gate)” value does the source give for “QVQLVESGGGLVQAGGSLRLSCAASGRTIKYYAMGWYRQAPGKERELVAVITYGGSTDYADSVKGRFTISRDNAKNTVYLQLNSLKPEDTAVYYCAAGFGRHYWGYDSWGQGTQVTVSS” here?
Its value is “low polyreactivity”.

With “QVQLVESGGGLVQAGGSLRLSCAASGRTILGYTMGWYRQAPGKESEFVAAITFSGDSTYYADSVKGRFTISRDKAKNTVYLQMNSLKPEDTAVYYCAAAIPRFSAGHYDYWGQGTQVTVSS” as the sequence, how does the “polyreactivity (PSR sort gate)” value read?
Its value is “high polyreactivity”.

Which “polyreactivity (PSR sort gate)” value does the source give for “QVQLVESGGGLVQAGGSLRLSCAASGRTINRYAMGCYRHAPGKERELVAAINSVGSTYYADSVKGRFTISRDNAKYTVYLQMNSLKPEDTAVFYCNAVQGSRFGYWGEGTQVTVSS” here?
Its value is “high polyreactivity”.

For “QVQLVESGGGLVQAGGSLRLSCAASGRTIPAYAMGWYRQAPGKERELVAAISWGGGSTYYADSVKGRFTISRDNAKNTVYLQMNSLKPEDTAVYYCAVAGYWFAVAEYDYWGQGTQVTVSS”, which “polyreactivity (PSR sort gate)” value is on record?
Its value is “low polyreactivity”.

Which “polyreactivity (PSR sort gate)” value does the source give for “QVQLVESGGGLVQAGGSLRLSCAASGRTIRLYAMGWYRQAPGQERELVAAITRGGRTNYADSVKGRFTISRDNAKNTVYLQMNSLKPEDTAVYYCAARYVERHTDYYYWGQGTQVTVSS” here?
The value was “low polyreactivity”.

With “QVQLVESGGGLVQAGGSLRLSCAASGRTIRWNAMGWYRQAPGKERELVAAIDSVDNTYYADSVNGRFTISRDNAKNTVYFQMNSLKPEDTAVYYCARDTYWQVQMDYWGQGTQVTVSS” as the sequence, how does the “polyreactivity (PSR sort gate)” value read?
The value was “low polyreactivity”.

Which “polyreactivity (PSR sort gate)” value does the source give for “QVQLVESGGGLVQAGGSLRLSCAASGRTIRWNAMGWYRQAPGKERELVGAIDSVDNTYYADSVKGRFTISRYNAKNTVYLQMNSLKPEDTGVYYCARDPYWQVQMDYWGQGTQVTVSS” here?
Its value is “low polyreactivity”.

Which “polyreactivity (PSR sort gate)” value does the source give for “QVQLVESGGGLVQAGGSLRLSCAASGRTIRYYAMGWYRQAPGKERELVAAITWSVGSTYYADSVKGRFTISRDNAKNTVYLQMNSLKPEDTAVYYCAARLYQLYYWGQGTQVTVSS” here?
The value was “high polyreactivity”.

With “QVQLVESGGGLVQAGGSLRLSCAASGRTISYNTMGWYRQARGKERELVARITWGGGSTNYADSVKGSFTISRDNAKNTVYLQMNSLKPEDTAVYYCAREYSSVYWVRHLFYYWGQGTQVTVSS” as the sequence, how does the “polyreactivity (PSR sort gate)” value read?
Its value is “low polyreactivity”.

For “QVQLVESGGGLVQAGGSLRLSCAASGRTITRYTMGWYRQAPGKERELVAAIRYSGGSTYYADSVKGRFTISRDTAKNTIYLQMNSLKPEDTAVYYCAARSYYYGFLYSYDYWGQGTQVTVSS”, which “polyreactivity (PSR sort gate)” value is on record?
The value was “low polyreactivity”.

For “QVQLVESGGGLVQAGGSLRLSCAASGRTITYYAMGWYRQAPGKERELVAAITWSGGSTYYADSVKGRFTISRDNAKNTVYLQMNSLKPEDTAVDYCAKEFYYSSGFDYWGQGTQVTVSS”, which “polyreactivity (PSR sort gate)” value is on record?
The value was “low polyreactivity”.

With “QVQLVESGGGLVQAGGSLRLSCAASGRTIVTNAMGWYRQAPGKERELVAAITTRGSRTYYADSVKGRFTISRDNAKNTVYLQMNSLKPEDTAVYYCAAKQKHTQQTGWKYEYWGQGTQVTVSS” as the sequence, how does the “polyreactivity (PSR sort gate)” value read?
The value was “high polyreactivity”.

For “QVQLVESGGGLVQAGGSLRLSCAASGRTIVYYAMGRYRQAPGKERELVAAISSSGSTYYADSVKGRFTISRDNAKNTVYLQMNSLKPEDTAVYYCATTHDYWLWGMGYWGQGTQVTVSS”, which “polyreactivity (PSR sort gate)” value is on record?
The value was “high polyreactivity”.

For “QVQLVESGGGLVQAGGSLRLSCAASGRTIYKYMGWDRQAPGKERELVAAIRWSGGSTYYADSVKGRFTISRDNAKNTVYLQMNSLKPEETAVYYCNVDSYGYKYDYWGQGTQVTVSS”, which “polyreactivity (PSR sort gate)” value is on record?
Its value is “low polyreactivity”.

For “QVQLVESGGGLVQAGGSLRLSCAASGRTIYRNAMGWYRQAPGKERELVAAISRSGGRTFYAYSVKGRFTISRDNAKNTVYLQMNSLKPEDTEVYYCADESYGVRLPSGYWGQGTQVTVSS”, which “polyreactivity (PSR sort gate)” value is on record?
Its value is “high polyreactivity”.

With “QVQLVESGGGLVQAGGSLRLSCAASGRTLADNAMGWYRQAPGKERELVAAITFSGDTTYYADSVKGRFTISRDNAKNTVYLQMNSLKPEDTAVYYCAAESSDPRAYDYWGQGTQVTVSS” as the sequence, how does the “polyreactivity (PSR sort gate)” value read?
Its value is “low polyreactivity”.

For “QVQLVESGGGLVQAGGSLRLSCAASGRTLARNAMGWYRQAPGKERELVASINGRTTRTYYADSVKGRFTISRDNAKNTVYLQMNSLKPEDPAVYYCAARATNVYSKMDYWGQGTQVTVSS”, which “polyreactivity (PSR sort gate)” value is on record?
The value was “high polyreactivity”.

Which “polyreactivity (PSR sort gate)” value does the source give for “QVQLVESGGGLVQAGGSLRLSCAASGRTLARYAMGGYRQAPGKERELVAAISSSGGSTYYADSVKGRFTISRDNAKNTVYLQMNSLKPEDTAVYYCAAGWRYRYFRSRNFYPYYYWGQGTQVTVSS” here?
Its value is “high polyreactivity”.

For “QVQLVESGGGLVQAGGSLRLSCAASGRTLASYGMGWYRQAPGKERELVAAISSRGGTTYYADSVKGRFTISRDNAKNTVYLQMNSLKPEDTAVYYCAKPGRYWGQGTQVTVSS”, which “polyreactivity (PSR sort gate)” value is on record?
The value was “high polyreactivity”.

Which “polyreactivity (PSR sort gate)” value does the source give for “QVQLVESGGGLVQAGGSLRLSCAASGRTLATYAMGWYRQAPGKERELVADISWRGGTTYYADSVKGRFTISRDNAKNTVYLQMNSLKPEDTAVYYCAKRFLFHSYYWGQGSQVTVSS” here?
The value was “high polyreactivity”.

For “QVQLVESGGGLVQAGGSLRLSCAASGRTLDLYAMGWYRQAPGKERELVAAISWRGGRTYYADSVKGRFTISRDNAQTTVYLQMNSLKPEDTAVYYCKADYPWSVVGYDYWGQGTQVSVSS”, which “polyreactivity (PSR sort gate)” value is on record?
The value was “low polyreactivity”.

With “QVQLVESGGGLVQAGGSLRLSCAASGRTLDSNAMGWYRQAPGKERELVAAISSAGSTNYADSVKGRFTISRDNAKNTVYLQMNRLQPEDTAVYYCAADLIGSHDYWGQGTQVTVSS” as the sequence, how does the “polyreactivity (PSR sort gate)” value read?
The value was “low polyreactivity”.

For “QVQLVESGGGLVQAGGSLRLSCAASGRTLEHNAMGWYRQAPGKERELVAAITDGGASTYYADSVKGRFTISRENAKNTVYLQMNSLKPEDTAVYYFAADTYPTTSEFDYWGQGTQVTVSS”, which “polyreactivity (PSR sort gate)” value is on record?
The value was “low polyreactivity”.

Which “polyreactivity (PSR sort gate)” value does the source give for “QVQLVESGGGLVQAGGSLRLSCAASGRTLFHYAMGWYRQAPGKERELVAAIRNSDGSTYYADSVKGRFTISRDNAKNSVYLQMNSLKPEDTGDYNCAAKYKYGTYNYWGQGSQVTVSS” here?
The value was “high polyreactivity”.

Which “polyreactivity (PSR sort gate)” value does the source give for “QVQLVESGGGLVQAGGSLRLSCAASGRTLFPNVMGWYRQAPGKERELVAAITTIGGSTYYADSVKGRFTISRDNGKNTVFLQMNSLKPEDTEVYYCNARYRGRGLKFAYWGQGTQVTVSS” here?
The value was “high polyreactivity”.

With “QVQLVESGGGLVQAGGSLRLSCAASGRTLGGNAMGWYRQAPGQERELVAAITNSASTYADSVKGRFTISRDNAKNTVYIQMNSLKPEDTAVYYCTAPDPSDQNGDYWGQGTQVTVSS” as the sequence, how does the “polyreactivity (PSR sort gate)” value read?
The value was “low polyreactivity”.

For “QVQLVESGGGLVQAGGSLRLSCAASGRTLGQNVMGWYRQAPGKERELVAAISSNTAGNTYYADSVKGRFTISRDNAKNTVYLQMNSLKPEDTAVYYCAIVDSFEAILDYWGQGTQVTVSS”, which “polyreactivity (PSR sort gate)” value is on record?
Its value is “low polyreactivity”.
